Reference: patent US20140228277A1 (Genentech, published 2014)
Positions of bridges follow the written chain, without caps; N, C: chain ends. No end group written: not given here.

B1: SEQ ID NO 69 (peptide)
chain: NMESVHCRLLGLGCG
notes: not shown: M13 major coat protein; peptide fused to its N-terminus
B2: SEQ ID NO 81 (peptide)
chain: NVEHIHCRLLGLGCG
modifications: not fully specified (C-terminus, bridges); cysteine pairing not given here
notes: as for B1
B3: SEQ ID NO 80 (peptide)
chain: KEESIHCRLLGLGCG
notes: as for B1
B4: SEQ ID NO 76 (peptide)
chain: NGDNMYCRLLGLGCE
modifications: not fully specified (C-terminus, bridges); cysteine pairing not given here
notes: as for B1
B5: SEQ ID NO 71 (peptide)
chain: KEENIYCRLLSLGCS
notes: as for B1
B6: SEQ ID NO 94 (peptide)
chain: NDEHMYCRLLGLDCN
modifications: not fully specified (C-terminus, bridges); cysteine pairing not given here
notes: as for B1
B7: SEQ ID NO 78 (peptide)
chain: NDESVYCRLLGIGCG
notes: as for B1
B8: SEQ ID NO 88 (peptide)
chain: HEDHLYCRLLGIGCG
modifications: not fully specified (C-terminus, bridges); cysteine pairing not given here
notes: as for B1
B9: SEQ ID NO 70 (peptide)
chain: NEESIYCRLLGLGCG
modifications: not fully specified (C-terminus, bridges); cysteine pairing not given here
notes: as for B1
B10: SEQ ID NO 74 (peptide)
chain: VEESIYCRLLGLGCG
notes: as for B1
B11: SEQ ID NO 83 (peptide)
chain: YEESIYCRLLGIGCG
modifications: not fully specified (C-terminus, bridges); cysteine pairing not given here
notes: as for B1
B12: SEQ ID NO 91 (peptide)
chain: AEESIYCRLLGLGCG
modifications: not fully specified (C-terminus, bridges); cysteine pairing not given here
notes: as for B1
B13: SEQ ID NO 72 (peptide)
chain: NEESIYCRLLGLACG
modifications: not fully specified (C-terminus, bridges); cysteine pairing not given here
notes: as for B1
B14: SEQ ID NO 87 (peptide)
chain: YEESIYCRLLGLGCG
modifications: not fully specified (C-terminus, bridges); cysteine pairing not given here
notes: as for B1
B15: SEQ ID NO 82 (peptide)
chain: NDDSLYCRLLGLGCG
modifications: not fully specified (C-terminus, bridges); cysteine pairing not given here
notes: as for B1
B16: SEQ ID NO 73 (peptide)
chain: KEDSMYCRLLGLGCG
modifications: not fully specified (C-terminus, bridges); cysteine pairing not given here
notes: as for B1
B17: SEQ ID NO 90 (peptide)
chain: TEESIYCRLLGLGCD
notes: as for B1
B18: SEQ ID NO 85 (peptide)
chain: KEESIYCRLLGHGCG
modifications: not fully specified (C-terminus, bridges); cysteine pairing not given here
notes: as for B1
B19: SEQ ID NO 93 (peptide)
chain: NPENNYCRLLNLGCG
notes: as for B1
B20: SEQ ID NO 89 (peptide)
chain: KEESLYCRLLGLGCG
modifications: not fully specified (C-terminus, bridges); cysteine pairing not given here
notes: as for B1
B21: SEQ ID NO 84 (peptide)
chain: TDESIYCRLLSIACG
modifications: not fully specified (C-terminus, bridges); cysteine pairing not given here
notes: as for B1
B22: SEQ ID NO 77 (peptide)
chain: DVESVYCRLLGLGCG
modifications: not fully specified (C-terminus, bridges); cysteine pairing not given here
notes: as for B1
B23: SEQ ID NO 86 (peptide)
chain: NEENMYCRLMGIGCG
modifications: not fully specified (C-terminus, bridges); cysteine pairing not given here
notes: as for B1
B24: SEQ ID NO 75 (peptide)
chain: IEESIYCRLLGFGCG
notes: as for B1
B25: SEQ ID NO 95 (peptide)
chain: NDENMYCRLLGLGCA
modifications: not fully specified (C-terminus, bridges); cysteine pairing not given here
notes: as for B1
B26: SEQ ID NO 92 (peptide)
chain: NEVSLYCRLLDLGCG
modifications: not fully specified (C-terminus, bridges); cysteine pairing not given here
notes: as for B1
B27: SEQ ID NO 79 (peptide)
chain: TEESLYCRLLGVGCG
modifications: not fully specified (C-terminus, bridges); cysteine pairing not given here
notes: as for B1
B28: BMS1 (peptide)
peptide: Ac-NLTTYPYFIPLP-NH2
notes: also called Peptide 1 of Kornacker et al
B29: BACE030 (peptide)
peptide: Ac-ESMYCRLLGIGCG-NH2
modifications: disulfide 5-12
SMILES: CC[C@H](C)[C@@H]1NC(=O)CNC(=O)[C@H](CC(C)C)NC(=O)[C@H](CC(C)C)NC(=O)[C@H](CCCNC(=N)N)NC(=O)[C@@H](NC(=O)[C@H](Cc2ccc(O)cc2)NC(=O)[C@H](CCSC)NC(=O)[C@H](CO)NC(=O)[C@H](CCC(=O)O)NC(C)=O)CSSC[C@@H](C(=O)NCC(N)=O)NC(=O)CNC1=O
notes: Minimal version of BACE020 with full activity

target: T1, recombinant human BACE1 (rhBACE1) (human, UniProt P56817 22-457, limits assumed); assay: spot phage ELISA, plate-immobilized BACE1 against BSA
T1 sequence (P56817 22-457 limits assumed): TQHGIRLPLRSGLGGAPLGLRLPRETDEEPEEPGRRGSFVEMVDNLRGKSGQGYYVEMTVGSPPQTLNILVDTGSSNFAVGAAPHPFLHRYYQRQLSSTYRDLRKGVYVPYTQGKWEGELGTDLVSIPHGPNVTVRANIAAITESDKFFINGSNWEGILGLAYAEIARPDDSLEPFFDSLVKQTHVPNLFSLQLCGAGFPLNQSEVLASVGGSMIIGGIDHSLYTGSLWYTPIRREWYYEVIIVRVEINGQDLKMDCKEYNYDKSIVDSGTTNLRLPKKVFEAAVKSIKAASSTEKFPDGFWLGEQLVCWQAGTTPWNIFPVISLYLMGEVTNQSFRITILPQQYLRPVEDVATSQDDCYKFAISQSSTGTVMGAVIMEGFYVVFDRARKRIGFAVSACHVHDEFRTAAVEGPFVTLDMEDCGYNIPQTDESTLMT

fold improvement of signal/noise ratio over parent BACE017	Binder
> 5 fold	B1
> 5 fold	B2
> 5 fold	B3
> 5 fold	B4
> 5 fold	B5
> 5 fold	B6
> 5 fold	B7
> 5 fold	B8
> 5 fold	B9
> 5 fold	B10
> 5 fold	B11
> 5 fold	B12
> 5 fold	B13
> 5 fold	B14
> 5 fold	B15
> 5 fold	B16
> 5 fold	B17
> 5 fold	B18
> 5 fold	B19
> 5 fold	B20
> 5 fold	B21
> 5 fold	B22
> 5 fold	B23
> 5 fold	B24
> 5 fold	B25
> 5 fold	B26
> 5 fold	B27

target: T1, recombinant human BACE1 (rhBACE1); assay: cell-based or functional assay

Caliper (MCE) BACE1 activity assay IC50	Caliper (MCE) BACE1 activity assay, EC50 (rate increased)	Binder
1280 nM		Ac-SMYCRLLGIGCG-NH2 (disulfide 4-11 (inferred), also called BACE31) [BACE031]
10900 nM		Ac-YCRLLGIGCG-NH2 (disulfide 2-9 (inferred)) [BACE033]
	227 nM	B28
8090 nM		Ac-MYCRLLGIGCG-NH2 (disulfide 3-10 (inferred)) [BACE032]
13 nM		Ac-EESMYCRLLGIGCG-NH2 (disulfide 6-13 (inferred), N-terminal truncation of BACE020) [BACE029]
12 nM		Ac-AEESMYCRLLGIGCG-NH2 (disulfide 7-14 (inferred), also called BACE020 position 1 to Ala) [BACE042]
13 nM		Ac-NAESMYCRLLGIGCG-NH2 (disulfide 7-14 (inferred), also called BACE020 Glu2 to Ala) [BACE043]
304 nM		Ac-NEEAMYCRLLGIGCG-NH2 (disulfide 7-14 (inferred), also called BACE020 Ser4 to Ala) [BACE045]
46 nM		Ac-NEASMYCRLLGIGCG-NH2 (disulfide 7-14 (inferred), also called BACE020 Glu3 to Ala) [BACE044]
18 nM		B29
74 nM		Ac-ESMYCKLLGIGCG-NH2 (disulfide 5-12 (inferred), also called BACE030 with Arg to lysine) [BACE058]
> 10000 nM		Ac-ESMYCALLGIGCG-NH2 (disulfide 5-12 (inferred)) [BACE057]

target: T1, recombinant human BACE1 (rhBACE1); assay: FP competition binding; 12 nM rhBACE1, competitor probe 5-TAMRA-BACE020
Experimental: BACE1 binding assays were carried out in a final volume of 10 μL per well in black 384-well microplates (Proxiplate-Plus; Perkin Elmer, Waltham, Mass.). […] The reaction was permitted to proceed towards equilibrium for 2 h at ambient temperature prior to fluorescence polarization measurement using Envision (Perkin Elmer). The parallel and perpendicular fluorescent emissions measured in each well at 595 nm (excitation 531 nm polarized light) were used to determine the milli-polarization level (mP) using the following formula: mP=1000*(S−G*P)/(S+G*P) where S=parallel emission, P=perpendicular emission and G=0.65.
The affinities of BACE1 peptide ligands were measured using the abovementioned competition binding FP assay for determining IC₅₀ values with serially diluted peptides. A Caliper assay was used to measure the inhibition of BACE1 enzymatic activity by peptide ligands.

IC50	Binder
2600 nM	Ac-SMYCRLLGIGCG-NH2 (disulfide 4-11 (inferred), also called BACE31) [BACE031]
> 10000 nM	B28
12 nM	Ac-EESMYCRLLGIGCG-NH2 (disulfide 6-13 (inferred), N-terminal truncation of BACE020) [BACE029]
31 nM	Ac-AEESMYCRLLGIGCG-NH2 (disulfide 7-14 (inferred), also called BACE020 position 1 to Ala) [BACE042]
41 nM	Ac-NAESMYCRLLGIGCG-NH2 (disulfide 7-14 (inferred), also called BACE020 Glu2 to Ala) [BACE043]
2340 nM	Ac-NEEAMYCRLLGIGCG-NH2 (disulfide 7-14 (inferred), also called BACE020 Ser4 to Ala) [BACE045]
131 nM	Ac-NEASMYCRLLGIGCG-NH2 (disulfide 7-14 (inferred), also called BACE020 Glu3 to Ala) [BACE044]
23 nM	B29
486 nM	Ac-ESMYCKLLGIGCG-NH2 (disulfide 5-12 (inferred), also called BACE030 with Arg to lysine) [BACE058]
